# Laboratory results: the supplement of paper PMC10567573
# B1: SETD8 (parent)
# chain: KKAQGKTQQNRKLTDFYPVRRSSR
# B2: ANKRD40 (parent)
# chain: YQELLRVCCCELGVNPDQVEKIRK
# Variants of: B1
# Assay: protein stability index of a GFP-peptide fusion (GPS, HEK-293T) (PSI 1-6); higher = more stable
# Details: c terminus: a fixed tail appended
# 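Further: lentivirally expressed fusions sorted by FACS into six bins by GFP to DsRed ratio, PSI derived from sequencing read proportions per bin multiplied by bin number.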
row,Variant,protein stability index
1,KKAQGKTQQNRSLTDFYPVRRSSR [K12S],2.64
2,KKAQGKTQQNRRLTDFYPVRRSSR [K12R],1.86
3,KKAQGKTQQNRKLTDFCPVRRSSR [Y17C],3.58
4,KKAQGKTQQNRKLPDFYPVRRSSR [T14P],2.4
5,KKAQGVTQQNRKLTDFYPVRRSSR [K6V],2.25
6,KKAQGKTQQNRKPTDFYPVRRSSR [L13P],3.64

# Variants of: B2
# Assay: as above
# Details: c terminus: a fixed tail appended
row,Variant,protein stability index
1,AQELLRVCCCELGVNPDQVEKIRK [Y1A],2.96
2,CQELLRVCCCELGVNPDQVEKIRK [Y1C],1.95
3,DQELLRVCCCELGVNPDQVEKIRK [Y1D],3.49
4,EQELLRVCCCELGVNPDQVEKIRK [Y1E],3.69
5,FQELLRVCCCELGVNPDQVEKIRK [Y1F],1.99
6,HQELLRVCCCELGVNPDQVEKIRK [Y1H],3.27
7,IQELLRVCCCELGVNPDQVEKIRK [Y1I],1.78
8,KQELLRVCCCELGVNPDQVEKIRK [Y1K],1.96
9,LQELLRVCCCELGVNPDQVEKIRK [Y1L],1.51
10,MQELLRVCCCELGVNPDQVEKIRK [Y1M],2.29
11,NQELLRVCCCELGVNPDQVEKIRK [Y1N],3.55
12,PQELLRVCCCELGVNPDQVEKIRK [Y1P],1.6
13,QQELLRVCCCELGVNPDQVEKIRK [Y1Q],3.28
14,RQELLRVCCCELGVNPDQVEKIRK [Y1R],2.16
15,SQELLRVCCCELGVNPDQVEKIRK [Y1S],2.65
16,TQELLRVCCCELGVNPDQVEKIRK [Y1T],2.53
17,VQELLRVCCCELGVNPDQVEKIRK [Y1V],1.15
18,WQELLRVCCCELGVNPDQVEKIRK [Y1W],1.29
19,YAELLRVCCCELGVNPDQVEKIRK [Q2A],1.94
20,YCELLRVCCCELGVNPDQVEKIRK [Q2C],1.64
21,YDELLRVCCCELGVNPDQVEKIRK [Q2D],2.47
22,YEELLRVCCCELGVNPDQVEKIRK [Q2E],2.98

row,Variant,protein stability index
1,YFELLRVCCCELGVNPDQVEKIRK [Q2F],1.44
2,YGELLRVCCCELGVNPDQVEKIRK [Q2G],2.08
3,YHELLRVCCCELGVNPDQVEKIRK [Q2H],1.77
4,YIELLRVCCCELGVNPDQVEKIRK [Q2I],1.73
5,YKELLRVCCCELGVNPDQVEKIRK [Q2K],2.5
6,YLELLRVCCCELGVNPDQVEKIRK [Q2L],1.51
7,YMELLRVCCCELGVNPDQVEKIRK [Q2M],1.76
8,YNELLRVCCCELGVNPDQVEKIRK [Q2N],2.52
9,YPELLRVCCCELGVNPDQVEKIRK [Q2P],2.08
10,YRELLRVCCCELGVNPDQVEKIRK [Q2R],2.58
11,YSELLRVCCCELGVNPDQVEKIRK [Q2S],1.57
12,YWELLRVCCCELGVNPDQVEKIRK [Q2W],1.67
13,YYELLRVCCCELGVNPDQVEKIRK [Q2Y],1.86
14,YQALLRVCCCELGVNPDQVEKIRK [E3A],1.52
15,YQDLLRVCCCELGVNPDQVEKIRK [E3D],1.59
16,YQFLLRVCCCELGVNPDQVEKIRK [E3F],1.76
17,YQHLLRVCCCELGVNPDQVEKIRK [E3H],2.01
18,YQILLRVCCCELGVNPDQVEKIRK [E3I],1.57
19,YQKLLRVCCCELGVNPDQVEKIRK [E3K],1.96
20,YQMLLRVCCCELGVNPDQVEKIRK [E3M],1.64
21,YQNLLRVCCCELGVNPDQVEKIRK [E3N],2.09
22,YQPLLRVCCCELGVNPDQVEKIRK [E3P],2.21

row,Variant,protein stability index
1,YQQLLRVCCCELGVNPDQVEKIRK [E3Q],1.59
2,YQRLLRVCCCELGVNPDQVEKIRK [E3R],1.21
3,YQSLLRVCCCELGVNPDQVEKIRK [E3S],2.26
4,YQTLLRVCCCELGVNPDQVEKIRK [E3T],2.13
5,YQYLLRVCCCELGVNPDQVEKIRK [E3Y],1.66
6,YQEALRVCCCELGVNPDQVEKIRK [L4A],2.63
7,YQECLRVCCCELGVNPDQVEKIRK [L4C],2.15
8,YQEDLRVCCCELGVNPDQVEKIRK [L4D],3.98
9,YQEELRVCCCELGVNPDQVEKIRK [L4E],3.05
10,YQEHLRVCCCELGVNPDQVEKIRK [L4H],3
11,YQEILRVCCCELGVNPDQVEKIRK [L4I],2.58
12,YQEKLRVCCCELGVNPDQVEKIRK [L4K],2.94
13,YQEMLRVCCCELGVNPDQVEKIRK [L4M],1.82
14,YQENLRVCCCELGVNPDQVEKIRK [L4N],2.55
15,YQEQLRVCCCELGVNPDQVEKIRK [L4Q],2.42
16,YQERLRVCCCELGVNPDQVEKIRK [L4R],1.79
17,YQESLRVCCCELGVNPDQVEKIRK [L4S],2.27
18,YQETLRVCCCELGVNPDQVEKIRK [L4T],2.53
19,YQEYLRVCCCELGVNPDQVEKIRK [L4Y],2.38
20,YQELARVCCCELGVNPDQVEKIRK [L5A],2.5
21,YQELCRVCCCELGVNPDQVEKIRK [L5C],3.06
22,YQELDRVCCCELGVNPDQVEKIRK [L5D],3.26

row,Variant,protein stability index
1,YQELGRVCCCELGVNPDQVEKIRK [L5G],2.05
2,YQELHRVCCCELGVNPDQVEKIRK [L5H],2.18
3,YQELIRVCCCELGVNPDQVEKIRK [L5I],1.77
4,YQELKRVCCCELGVNPDQVEKIRK [L5K],2.37
5,YQELMRVCCCELGVNPDQVEKIRK [L5M],2.41
6,YQELNRVCCCELGVNPDQVEKIRK [L5N],1.99
7,YQELPRVCCCELGVNPDQVEKIRK [L5P],1.75
8,YQELQRVCCCELGVNPDQVEKIRK [L5Q],3.04
9,YQELTRVCCCELGVNPDQVEKIRK [L5T],1.91
10,YQELLAVCCCELGVNPDQVEKIRK [R6A],2.02
11,YQELLCVCCCELGVNPDQVEKIRK [R6C],1.92
12,YQELLDVCCCELGVNPDQVEKIRK [R6D],2.56
13,YQELLEVCCCELGVNPDQVEKIRK [R6E],2.36
14,YQELLFVCCCELGVNPDQVEKIRK [R6F],1.78
15,YQELLGVCCCELGVNPDQVEKIRK [R6G],2.23
16,YQELLHVCCCELGVNPDQVEKIRK [R6H],2.11
17,YQELLIVCCCELGVNPDQVEKIRK [R6I],1.49
18,YQELLKVCCCELGVNPDQVEKIRK [R6K],1.91
19,YQELLLVCCCELGVNPDQVEKIRK [R6L],1.74
20,YQELLMVCCCELGVNPDQVEKIRK [R6M],1.73
21,YQELLNVCCCELGVNPDQVEKIRK [R6N],2.26
22,YQELLPVCCCELGVNPDQVEKIRK [R6P],2.02
